The values below come from the nanobody polyreactivity screen of Harvey et al. (2022).

The series in a line: yeast display, Sf9 membrane polyspecificity reagent, FACS + sequencing; frameworks hold sequencing errors. The gist of the method: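 Nanobodies from a synthetic yeast display library (Saccharomyces cerevisiae BJ5465), induced 36–48 hours with galactose, were stained 1 hour at 4 °C with 10% biotinylated, detergent-solubilized Sf9 membrane reagent, enriched on streptavidin microbeads, then FACS-sorted. Anti-HA (expression) and streptavidin (reagent binding) fluorescence set low and high (top ~1%) gates. Polyreactivity labels come from the gate of origin. Genes were colony-PCR amplified, MiSeq 2 × 250 sequenced and filtered by CDR length.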
Take “QVQLVESGGGLVQAAGSLRLICDASGFTFDLYAMGWYRQAPGKERELVAAISWSGGSTRYADSVKGGFTISRDNSKNTVYLQMTSLKPEDTALYYCARQPRLYFKVKLYGYWGQGTQVTVSS”: the “polyreactivity (PSR sort gate)” value is “high polyreactivity”.
Regarding “QVQLVESGGGLVQAAGSLRLSCAASGLTFFGYAMGWYRQAPGKERELVAAISSSGTRTYYADSVKGRFTISRDHAKNTVYLQMNSLKPEDTAFYYCASGRYQEYDYWGQGTQVTVSS”, the “polyreactivity (PSR sort gate)” value is listed as “high polyreactivity”.
“QVQLVESGGGLVQAAGSLRLSCAASGLTFPFYTMGWYIQAPGKARELVAAISRRGGSTYYADSVKGRFTISRDNAKNTVYLQMNSLKPEDTAVYYCAADKYSWYDYWGQGTQVTVSS”: the “polyreactivity (PSR sort gate)” value is “low polyreactivity”.
Turning to “QVQLVESGGGLVQAAGSLRLSCAASGRIFFAYAMGWNRQEPGKERELVASITSGGSTNYADSVKGRFTISRDNAKNTVYLQMNSLKPEDTAVYYCAARSRFSNLYVRFYYWGQGTQVTVSS”, the “polyreactivity (PSR sort gate)” value was “high polyreactivity”.
Regarding “QVQLVESGGGLVQAAGSLRLSCAASGRIFYSYAMGWYRQAPGKERELVAASSFSVGSTYYADSVKGRFTISRDNAKNTVYLQMNSLKPEDTAVYYCAASLGFPGYEYWGQGTQVTVSS”, the “polyreactivity (PSR sort gate)” value was “low polyreactivity”.
For the sequence “QVQLVESGGGLVQAAGSLRLSCAASGRTFFPYAMGWYRQAPGKEREFVAAITKTDDSTYYADSVKGRFTISRDNAKNTVYLQMNSLKPEDSAVYYCNAGDTQIRFYYWGQVTQVTVSS”, the “polyreactivity (PSR sort gate)” value was “low polyreactivity”.
As to “QVQLVESGGGLVQAAGSLRLSCAASGRTFVFYAMGWYRQAPGKERELVAAISDGDRTNYADSVKGRFTISRDNAKNTVYLQMNSLKPEDTAVYYCAADREFWWAVVYTYEYYYWGQGTQVTVSS”, the “polyreactivity (PSR sort gate)” value is recorded as “low polyreactivity”.
For “QVQLVESGGGLVQAAGSLRLSCAASGSIAMGWYRQAPGKERELVATISSSGGSTYYADSVKGRFTISRDNAKNTVYLQMNSLKPEDTAVYYCAAGGYTLYHAWGYYWGQGTQVTVSS”, the “polyreactivity (PSR sort gate)” value is “low polyreactivity”.
The result for “QVQLVESGGGLVQAAGSLRLSCAASGSTFAANAMGWYRQAPGKERELVAAITWTGGSTYYADSVKGRFTISRDNAKNTVYLQMNSLKPEDTAVYYCARRSYGRYYYRYRAYDYWGQGTQVTVSS” reads “high polyreactivity”; that for “QVQLVESGGGLVQAAGSLRLSCAASVNTFFKNAMGWYRQAPGKERELVAAISKGGGSTYYADSVKGRFTISRDNAKNTVYLQMNSLKPEDTAVYYCAADTFGVYASTYDYWGQGTQVTVSS”, “high polyreactivity”.
Turning to “QVQLVESGGGLVQAAGSRRLSCDASGRIFGWYAMGWSRQAPGKERELVAAITNSGGSPYCADSVKGRFTISRDNAKNTVYLERKSLIPEDTAVYYCARSFSFYGKRKYDYWGQGTQVTVSS”, the “polyreactivity (PSR sort gate)” value was “high polyreactivity”.
As to “QVQLVESGGGLVQAEGSLRLSCAASGRTFRPYALGWYRQAPGKERELVAVITSGGRTDYADSVKGRFTISRDNAKNTVYLQMNSLKPEDTAVYYCNAGAVYWGYSRGWYERDYWGQGTQVTVSS”, the “polyreactivity (PSR sort gate)” value is on record as “high polyreactivity”.
Take “QVQLVESGGGLVQAGASLRLCCAASGRILRRYAMGWYRQAPGKEWELVAAITARTGSTYYADSVKGRFTISRDTAKYTVYLQMNSLKPEDTAVYYCNAVNELTGGVIFNYWGQGTQVTVSS”: the “polyreactivity (PSR sort gate)” value was “high polyreactivity”.
For the sequence “QVQLVESGGGLVQAGASLRLSCAASGCTFVVNAMGWYRQAPGKERELVAAITDGSSTNYADSVKGRFTISRDNAKYTVYLQMTRLIRQDTAVYFCAAVPYIDLDDINVEHPQYGYWGQGTQVTVSS”, the “polyreactivity (PSR sort gate)” value was “low polyreactivity”.
With “QVQLVESGGGLVQAGASLRLSCAASGFIFRHYAMGWYRQAPGKARELVAVINWSGSSTYYADSVKGRFTISRDNAKNTVYLQMNSLKPEDTAVYYCAVRSLRVDKYGYWGQGTQVTVSS”, the “polyreactivity (PSR sort gate)” value was “high polyreactivity”.
As for “QVQLVESGGGLVQAGASLRLSCAASGFTFGTYAMGWYRQAPGKERELVAAITKSGVRTYYADSVKGRFTISRDNAKNTVYLQMNSLKPEDTAVYYCNARGHSSLSTIVDFWGQGTQVTVSS”, the entry is “high polyreactivity”.
As to “QVQLVESGGGLVQAGASLRLSCAASGFTLYSYAMGWYRQAPGKERELDASISTGGSTYYADSVKGRFTISRDNAKNTVYLQMNSLKPVDTAVYYSAVDGWYYTSWSFYRRYEYWGQGTQVSVSS”, the “polyreactivity (PSR sort gate)” value is “high polyreactivity”.
As for “QVQLVESGGGLVQAGASLRLSCAASGGIFVVYGMGWYRQAPGNERELVAAISWRGGSTYYADSVKGRFTISRDNAKNTVYLQMNSLKPEDTAVYYCAADQYYGGYDYWGQGTQVTVSS”, the entry is “low polyreactivity”; as for “QVQLVESGGGLVQAGASLRLSCAASGIIYAYNAMGWYRPAPGKERELVATITDSGGSTSYADSVKGRFTISRDNAKNTVYLQMNSLKPEDTAVYYCAVLPVYWYWRNYVYLSGYDYWGQGTQVTVSS”, “low polyreactivity”; as for “QVQLVESGGGLVQAGASLRLSCAASGLIFYFYAMGWYRQAPGKERELVATIRSSTGSTYYADSVKGRFTISRDNAKNTVYLQMNSLKPEDTAVYYCNAGIKRYEWYQFDYWGQGTQVSVSS”, “low polyreactivity”.
For the sequence “QVQLVESGGGLVQAGASLRLSCAASGRIFWHNAMGWYRQAPGKERELVAAMTRGGSTYYADSVKGRFTISRDNAKNTVYLQMNSLKPEDTAVYYCATLGSLRYYWPGYDYWGQGTQVTVSS”, the “polyreactivity (PSR sort gate)” value was “low polyreactivity”.
With “QVQLVESGGGLVQAGASLRLSCAASGRILKTYAMGSYRQAPGKERELVAAITGRGGRTYYADSVKGRFTISRDNAKNTFYLQMISLKPEDTAVYYCAAYYGPSRSLYYYWGQGSQVTVSS”, the “polyreactivity (PSR sort gate)” value is “high polyreactivity”.
In the case of “QVQLVESGGGLVQAGASLRLSCAASGRTFLRYAMGWYRQAPGKERELVAAISSRGGSTYYADSVKGRFTISRDNAKNTVYLQMNSLIPEDTAVYYCAARGCRSQVPVRVFRYDFWGQGTQVTVSS”, the “polyreactivity (PSR sort gate)” value is “high polyreactivity”.
Take “QVQLVESGGGLVQAGASLRLSCAASGRTFRYYDMGWSRQEPGKEREFVAAITWRGGSTYFADSVKGRFTISRDNAKNTVFLQMNSLKPEDTAVYYCATDSLRLYGGKRDLYFWGQGTQVTVSS”: the “polyreactivity (PSR sort gate)” value is listed as “low polyreactivity”.
With “QVQLVESGGGLVQAGASLRLSCAASGRTFYNYAMGWYRQARGKEREFVASMTTSGGSTYYADSVKGRFTISRDNAKNTVYLQMNSLKPEDTAVYYCARRAYRSWTGNSYEYYYWGQGTQVTVSS”, the “polyreactivity (PSR sort gate)” value is given as “high polyreactivity”.
On to “QVQLVESGGGLVQAGASLRLSCAASGRTSYRYAMGWNRQAPGKERELVAAISFGGGSTYYADSVKGRFPISRDNAKNTVYLQMNSLKPEDTAFYYCATDRVKYRNIYTDTGFDYWGQGTQVTVSS”, for which the “polyreactivity (PSR sort gate)” value is “high polyreactivity”.
Turning to “QVQLVESGGGLVQAGASLRLSCAASGSTFARYAMGWYRQAPGKERELVAAISSSGRTYYADSVKGRFTISRDNAKNSVYLQMNSLKPEDTAVYYCNAPVARGEASYYWGQGTQVTVSS”, the “polyreactivity (PSR sort gate)” value is on record as “high polyreactivity”.
The result for “QVQLVESGGGLVQAGASLRLSCAASGSTFGGNAMGWSRQAPWKERELVAAINWTGGSTYADSVKGRFTISRDNAKNTVYLQMNRLKPEDTAVYYCAIRATWGSSTQYLQNQEYDYWGQGSQVTVSS” reads “low polyreactivity”.
The result for “QVQLVESGGGLVQAGASLRLSCAASGSTFGYYAMGWNRQAPGKERELVAAISTRGGSTYYADSVKGRFTISRDNAKTTVYLQMNSLKPEDIAVYYCAVLGTPYGLNDYCGQGTQVTVSS” reads “high polyreactivity”.
As for “QVQLVESGGGLVQAGASLRLSCAASGSTFLQNAMGWYRQAPGKVRELVAAITRSGGSTNYADSVKGRFKISRDNAKNTVYLQKNSLKPEDTAVYYCPAGGRRYDDDYWGQGTQVTVSS”, the entry is “high polyreactivity”.
